Measured values from paper PMC10716049.

Assays:
MED1-IDR = assay: confocal fluorescence microscopy, AR AD partitioning into preassembled droplets; details: 15 µM MED1-IDR, 20 mM NaCl, 10% ficoll, 1 µM AR AD; parent: est. 97; read off a plot
RNAPII-CTD = assay: as above; details: 5 µM RNAPII-CTD, 50 mM NaCl, 10% ficoll, 1 µM AR AD; parent: est. 70; read off a plot

AR AD WT* 22YtoS
response (MED1-IDR): 80 arb.u. | response (RNAPII-CTD): 25 arb.u.
